Test results as given in patent US20210396761A1 (AICURIS, published 2021).

Assays:
[1] = target: T1, pUL53 (50-292) (human cytomegalovirus (HCMV) strain …, UniProt P16794 50-292); test: analytical size exclusion chromatography, coproduced in E. coli and also mixed in vitro
T1 sequence: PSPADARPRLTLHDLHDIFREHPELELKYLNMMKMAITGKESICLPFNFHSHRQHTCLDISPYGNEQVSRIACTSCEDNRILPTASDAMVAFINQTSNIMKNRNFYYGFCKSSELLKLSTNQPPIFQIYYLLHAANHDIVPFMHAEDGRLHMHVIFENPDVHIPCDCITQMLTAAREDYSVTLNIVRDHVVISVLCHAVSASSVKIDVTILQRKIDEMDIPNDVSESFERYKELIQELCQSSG

[2] = target: the molecule itself; test: analytical size exclusion chromatography (Superdex 75 10/300)
[3] = target: T2, EBV BFLF2, C-terminally fused to the Flag epitope (pcDNA-BFLF2-Flag, pHM4698) (Epstein-Barr virus (EBV) strain B95-8, UniProt P0CK47 1-318); test: coimmunoprecipitation, transiently transfected 293T cells
T2 construct: also called Flag-tagged BFLF2
T2 sequence: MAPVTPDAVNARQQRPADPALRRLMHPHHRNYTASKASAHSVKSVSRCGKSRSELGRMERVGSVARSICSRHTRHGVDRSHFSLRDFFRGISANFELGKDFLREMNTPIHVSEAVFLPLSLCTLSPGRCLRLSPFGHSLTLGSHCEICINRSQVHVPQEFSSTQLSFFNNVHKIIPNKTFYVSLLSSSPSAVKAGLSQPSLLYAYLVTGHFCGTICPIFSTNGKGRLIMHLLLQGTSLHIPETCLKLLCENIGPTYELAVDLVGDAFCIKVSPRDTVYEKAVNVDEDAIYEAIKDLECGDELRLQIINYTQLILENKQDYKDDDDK

[4] = target: T3, VZV Orf24, C-terminally fused to the HA epitope (pcDNA-Orf24-HA, pHM4695) (varicella zoster virus (VZV) strain …, UniProt P09280 1-269); test: as above
T3 sequence: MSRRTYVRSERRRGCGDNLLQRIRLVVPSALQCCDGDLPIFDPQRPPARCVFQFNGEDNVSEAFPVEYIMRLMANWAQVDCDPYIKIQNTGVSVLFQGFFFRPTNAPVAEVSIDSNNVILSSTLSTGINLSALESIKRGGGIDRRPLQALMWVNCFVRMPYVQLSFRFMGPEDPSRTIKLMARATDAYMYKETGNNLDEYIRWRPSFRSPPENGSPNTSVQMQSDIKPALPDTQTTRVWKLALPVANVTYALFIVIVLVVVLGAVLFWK

[5] = target: T4, HCMV pUL50, C-terminally fused to the HA epitope (pcDNA-UL50-HA, pHM2589) (human cytomegalovirus (HCMV) strain …, UniProt P16791 1-397); test: as above
T4 sequence: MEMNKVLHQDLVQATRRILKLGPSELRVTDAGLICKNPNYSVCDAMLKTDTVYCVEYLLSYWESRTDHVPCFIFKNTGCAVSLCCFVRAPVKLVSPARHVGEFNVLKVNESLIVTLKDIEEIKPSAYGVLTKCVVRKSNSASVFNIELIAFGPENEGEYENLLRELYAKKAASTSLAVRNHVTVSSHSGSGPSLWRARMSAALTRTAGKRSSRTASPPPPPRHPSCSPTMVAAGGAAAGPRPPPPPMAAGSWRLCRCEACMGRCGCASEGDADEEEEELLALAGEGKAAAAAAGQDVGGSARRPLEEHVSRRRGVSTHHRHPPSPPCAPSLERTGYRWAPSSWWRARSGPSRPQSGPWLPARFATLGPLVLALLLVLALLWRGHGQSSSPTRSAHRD

B1: pUL50 (1-181) (other)
chain: MEMNKVLHQDLVQATRRILKLGPSELRVTDAGLICKNPNYSVCDAMLKTDTVYCVEYLLSYWESRTDHVPCFIFKNTGCAVSLCCFVRAPVKLVSPARHVGEFNVLKVNESLIVTLKDIEEIKPSAYGVLTKCVVRKSNSASVFNIELIAFGPENEGEYENLLRELYAKKAASTSLAVRNH
B1: binds [1]; no binding [2].

B2: MCMV pM50, C-terminally fused to the HA epitope (pcDNA-M50-HA, pHM4717) (other)
chain: MEIDKNVGADLISNTRRILRLDENELRITDTALICKNPNYSLCDAMLTTDIVYPVEYLLSYWECRSGRTACFVFKNTGCRVSLSCYIGFPERLKDLKRVCDFNFLSVNEALVVTLADIERIKPCDKGVLTNCVVRKSNSGMSYNIEVVAFGPDNEAEYQALLRDIYARRMTSVPTDCGSLICRRARCLAAAPPRRPPPPPPPGQRWGSLRKHGPVLTRRYAGGGGAAKNQPAAASPTSTSTSSPAAPSRDQDQTQRPPPAGDTNVTAAETTYSERTISFLTRHANAIHCALILAAAIALVLLWLLYWHAARSAGHP
notes: also called pM50-HA; HA-tagged pM50
B2: no binding [3].

B3: MCMV pM53, C-terminally fused to the Flag epitope (pcDNA-M53-Flag, pHM4718) (other)
chain: MFRSPEGEERDAADREEEEGGEARRRSRMMMSPRRVKRARHRPAGSGLRTPLRSPSACRCSSPSPERQWQQRRRAEKRSTTPTDPPPPPKRSAASAAAGAAAPESEYLNVKLSELHDVFQRHPDLEQKYLKIMKLPITGKESIRLPFDFKSHRQHTCLDLSPYGNDQVSRSACTTCKETTRLPTASDSMVAFINQTSNVMKHRKFYFGFRKNMELLKMAANQPQLFQIYYIVQSCVQEIVPLIYYDREMAHMQLIFEKETVHIPSQCIEQILTVAKDAYGVSLDIAHQRITLTARCLRLESSSLRIDVLMLQRKVDELEIPNETNEKFESYSLDYKDDDDK
notes: also called pM53-Flag; Flag-tagged pM53
B3: no binding [4]; binds [5].
